The record followed here is patent US20250136717A1 (BYONDIS B V, published 2025).

For experiment [1], the target named is T1, Protein A (Protein A sensor tips, Forte Bio, 18-5012) (UniProt P38507 37-327).
T1 construct: used to correct for the concentration of the antibody samples
Briefly: BLI, Protein A tips. In general terms: In BLI a coated tip is dipped into the sample, and binding shifts an interference pattern.
Description: (§1) To correct for differences in concentration between the analyte stocks, Protein A binding was estimated for the same samples.

In experiment [2] the target is T2, Human Coagulation Factor III/Tissue Factor Protein, His Tag, Cat. No. TF3-H52H5 (human, UniProt P13726 33-251).
T2 construct: immobilized on Ni-NTA biosensor tips
Briefly: BLI, TF signal over Protein A signal.
Description: as §1

Experiment [3] addresses T2, Human Coagulation Factor III/Tissue …. The experiment can be described thus: BLI, TF on Ni-NTA tips.
Description: as §1

T2 sequence (P13726 33-251 limits assumed): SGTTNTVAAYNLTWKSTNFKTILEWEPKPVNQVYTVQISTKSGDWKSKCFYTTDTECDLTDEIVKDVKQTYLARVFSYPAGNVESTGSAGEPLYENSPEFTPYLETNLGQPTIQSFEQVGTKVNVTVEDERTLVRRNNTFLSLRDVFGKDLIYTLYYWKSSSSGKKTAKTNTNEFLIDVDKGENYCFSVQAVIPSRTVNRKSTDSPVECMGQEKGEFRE

B1: S312 (antibody)
heavy: not shown
light: DIQMTQSPPSLSASAGDRVTITCRASQGISSRLAWYQQKPEKAPKSLIYAASSLQSGVPSRFSGSGSGTDFTLTISSLQPEDFATYYCQQYNSYPYTFGQGTKLEIKRTVAAPSVFIFPPSDEQLKSGTASVVCLLNNFYPREAKVQWKVDNALQSGNSQESVTEQDSKDSTYSLSSTLTLSKADYEKHKVYACEVTHQGLSSPVTKSFNRGEC
notes: also called Anti-TF tisotumab (TF-011) (naked); parent antibody tisotumab
Consider B1, for which, in experiment [1], the “Protein A binding after 10 s of association” value was determined as 1.75 nm. The “TF/Protein A * 1000” value in experiment [2] worked out at 641. For the same molecule, the “TF binding after 10 s of association” value in experiment [3] is 1.12 nm.
